In patent publication EP4814018A2 (F. Hoffmann-La Roche AG, dated 2026):

Columns and labels:
[1] = biological target: T1, human transferrin receptor (human, UniProt P02786 89-760); assay: BIAcore
T1 construct: also called huTfR; hTfR

[2] = biological target: T2, cynomolgus transferrin receptor (cynomolgus, UniProt H9EXL1 89-760 (rhesus entry)); assay: BIAcore
T2 construct: also called cyTfR; Cyno TfR

[3] = biological target: T3, cynomolgus transferrin receptor on stably transfected CHO cells (cynomolgus); assay: FACS on cyTfR CHO cells
T3 construct: whole, on cells; also called Cyno TfR-CHO; cyTfR (FACS)

[4] = biological target: T3, cynomolgus transferrin receptor on …; assay: FACS, cyno against human TfR CHO cells
[5] = biological target: T2, cynomolgus transferrin receptor; assay: BIAcore B4000, biotinylated TfR captured (Example 14), 25 °C
[6] = biological target: T2, cynomolgus transferrin receptor; assay: BIAcore T200, biotinylated TfR captured (Example 13), 25 °C

T2 sequence (chain, as listed by the source): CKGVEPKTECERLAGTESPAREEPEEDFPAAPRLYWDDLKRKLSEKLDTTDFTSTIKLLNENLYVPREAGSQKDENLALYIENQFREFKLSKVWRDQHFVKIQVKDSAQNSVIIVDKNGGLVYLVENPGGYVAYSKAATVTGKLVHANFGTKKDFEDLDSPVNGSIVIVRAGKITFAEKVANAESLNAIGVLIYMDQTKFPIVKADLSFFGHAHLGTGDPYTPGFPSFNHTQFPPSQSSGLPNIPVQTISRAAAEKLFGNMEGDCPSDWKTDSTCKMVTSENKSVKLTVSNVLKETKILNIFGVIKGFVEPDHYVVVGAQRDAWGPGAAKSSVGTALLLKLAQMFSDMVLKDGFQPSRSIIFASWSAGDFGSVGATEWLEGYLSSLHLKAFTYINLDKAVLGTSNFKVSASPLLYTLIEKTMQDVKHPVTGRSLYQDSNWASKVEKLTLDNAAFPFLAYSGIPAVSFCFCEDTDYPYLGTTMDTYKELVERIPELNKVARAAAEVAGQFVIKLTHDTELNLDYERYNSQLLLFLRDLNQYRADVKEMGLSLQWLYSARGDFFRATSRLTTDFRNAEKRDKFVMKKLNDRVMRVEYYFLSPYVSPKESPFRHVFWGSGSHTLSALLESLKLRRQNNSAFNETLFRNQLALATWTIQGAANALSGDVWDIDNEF
T1 sequence (P02786 89-760 limits assumed): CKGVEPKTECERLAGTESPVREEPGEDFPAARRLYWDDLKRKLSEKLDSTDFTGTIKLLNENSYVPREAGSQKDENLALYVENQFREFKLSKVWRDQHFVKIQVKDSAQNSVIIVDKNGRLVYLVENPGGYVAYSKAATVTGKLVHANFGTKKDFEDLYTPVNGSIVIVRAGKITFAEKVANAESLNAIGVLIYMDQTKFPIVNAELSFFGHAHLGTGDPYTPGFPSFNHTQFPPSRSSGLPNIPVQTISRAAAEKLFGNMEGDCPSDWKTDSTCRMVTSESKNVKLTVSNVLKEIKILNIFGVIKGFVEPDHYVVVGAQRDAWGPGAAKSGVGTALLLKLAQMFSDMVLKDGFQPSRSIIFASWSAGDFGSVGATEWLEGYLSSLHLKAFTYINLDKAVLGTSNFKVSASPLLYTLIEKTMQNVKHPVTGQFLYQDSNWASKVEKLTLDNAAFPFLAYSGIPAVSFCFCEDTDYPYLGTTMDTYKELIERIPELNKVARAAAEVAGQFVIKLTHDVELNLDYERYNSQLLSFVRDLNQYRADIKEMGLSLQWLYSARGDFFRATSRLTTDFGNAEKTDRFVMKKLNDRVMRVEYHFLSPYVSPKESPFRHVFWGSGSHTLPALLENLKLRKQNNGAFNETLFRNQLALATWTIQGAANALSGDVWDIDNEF

B1: murine anti-transferrin receptor antibody 128.1 (antibody, V domains shown)
VH: QVQLVQSGAEVKKPGASVKVSCKASGYTFTGYTMNWVRQAPGQGLEWMGRINPHNGGTDYAQKFQGRVTMTRDTSISTAYMELSRLRSDDTAVYYCARGYYYYSLDYWGQGTLVTVSS
VL: DIQMTQSPSSLSASVGDRVTITCRASSSIRYIHWYQQKPGKAPKRLIYDTSNLASGVPSRFSGSGSGTEFTLTISSLQPEDFATYYCHQRNSYPWTFGQGTRLEIK
BIAcore t1/2 [1]: 19 min
BIAcore t1/2 [2]: 0.2 min
EC50 [3]: 0.314 µg/mL
ratio EC50 Cyno/ human [4]: 3.3
ratio max Cyno/ human [4]: 0.6
koff [5]: 0.0778 s⁻¹
Kd [6]: 136 nM
koff [6]: 0.0733 s⁻¹
kon [6]: 541000 M⁻¹ s⁻¹
